Measurements from patent US20180230231A1 (Memorial Sloan Kettering, published 2018).
Numbering of substitutions follows the chain as printed. Values belong to the molecule of their own block, whether it stands above or below them. Ends that are not written are not given here.

Tests used:
[1] = target: mouse MUC16 on ID8 and BR5-FVB1 cells (mouse); experiment: FACS on BR5-FVB1 (mouse) cells, second antibody alone
[2] = target: mouse MUC16 on ID8 and BR5-FVB1 cells (mouse); experiment: FACS on ID8 (mouse) cells, second antibody alone
[3] = target: phrGFP-ΔMUC16^c114 on SKOV3 cells (human); experiment: FACS dot plot, surface staining, goat anti-mouse PE (FL2) against GFP (FL1); secondary antibody alone gives about 0.9 in this quadrant (FIG. 7A)
phrGFP-ΔMUC16^c114 on SKOV3 cells (human), sequence (chain, as listed by the source mutant limits assumed): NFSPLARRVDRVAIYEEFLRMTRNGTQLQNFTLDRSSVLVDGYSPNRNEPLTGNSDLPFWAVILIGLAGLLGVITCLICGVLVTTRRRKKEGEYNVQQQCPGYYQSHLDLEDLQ

[4] = target: phrGFP-ΔMUC16^c334 on SKOV3 cells (human); experiment: FACS dot plot, surface staining, goat anti-mouse PE (FL2) against GFP (FL1); secondary antibody alone gives 4.11 in this quadrant (FIG. 7A)
[5] = target: human MUC16 on OVCAR3 cells (human); experiment: FACS dot plot, surface staining, goat anti-mouse PE (FL2) against GFP (FL1); secondary antibody alone gives 8.06 in this quadrant (FIG. 7A)
[6] = target: phrGFP-ΔMUC16^c114 on SKOV3 cells (human); experiment: FACS dot plot, surface staining, goat anti-mouse PE (FL2) against GFP (FL1); secondary antibody alone gives 0.55 in this quadrant (FIG. 7A)
[7] = target: phrGFP-ΔMUC16^c334 on SKOV3 cells (human); experiment: FACS dot plot, surface staining, goat anti-mouse PE (FL2) against GFP (FL1); secondary antibody alone gives 0.69 in this quadrant (FIG. 7A)
[8] = target: phrGFP-ΔMUC16^c334 on SKOV3 cells (human); experiment: FACS dot plot, surface staining, goat anti-mouse PE (FL2) against GFP (FL1); secondary antibody alone gives 4.11 in this quadrant
[9] = target: phrGFP-ΔMUC16^c114 on SKOV3 cells (human); experiment: FACS dot plot, surface staining, goat anti-mouse PE (FL2) against GFP (FL1); secondary antibody alone gives 0.55 in this quadrant
[10] = target: phrGFP-ΔMUC16^c334 on SKOV3 cells (human); experiment: FACS dot plot, surface staining, goat anti-mouse PE (FL2) against GFP (FL1); secondary antibody alone gives 0.69 in this quadrant
[11] = target: phrGFP-ΔMUC16^c114 on SKOV3 cells (human); experiment: FACS dot plot, surface staining, goat anti-mouse PE (FL2) against GFP (FL1); secondary antibody alone gives about 0.9 in this quadrant
[12] = target: human MUC16 on OVCAR3 cells (human); experiment: FACS dot plot, surface staining, goat anti-mouse PE (FL2) against GFP (FL1); secondary antibody alone gives 8.06 in this quadrant
[13] = target: phrGFP-ΔMUC16^c114 on SKOV3 cells (human); experiment: FACS dot plot, surface staining, goat anti-mouse IgG PE (FL2) against GFP (FL1); secondary antibody alone gives about 0.9 in this quadrant (FIG. 7A)
[14] = target: phrGFP-ΔMUC16^c334 on SKOV3 cells (human); experiment: FACS dot plot, surface staining, goat anti-mouse IgG PE (FL2) against GFP (FL1); secondary antibody alone gives 0.69 in this quadrant (FIG. 7A)
[15] = target: human MUC16 on OVCAR3 cells (human); experiment: FACS dot plot, surface staining, goat anti-mouse IgG PE (FL2) against GFP (FL1); secondary antibody alone gives 8.06 in this quadrant (FIG. 7A)
[16] = target: phrGFP-ΔMUC16^c114 on SKOV3 cells (human); experiment: FACS dot plot, surface staining, goat anti-mouse IgG PE (FL2) against GFP (FL1); secondary antibody alone gives 0.55 in this quadrant (FIG. 7A)
[17] = target: phrGFP-ΔMUC16^c334 on SKOV3 cells (human); experiment: FACS dot plot, surface staining, goat anti-mouse IgG PE (FL2) against GFP (FL1); secondary antibody alone gives 4.11 in this quadrant (FIG. 7A)
[18] = target: T1, MUC16 Polypeptide 2 (human, not fully specified); experiment: ELISA on synthetic peptide, hybridoma sup 1:1
T1 construct: Synthetic peptide
T1 peptide: CTLDRSSVLVDGYSPNRNE

[19] = target: T2, Mouse MUC16-CD Peptide 1 (mouse, also: N-terminal Cys added for KLH conjugation of immunogen); experiment: ELISA of clone supernatant on individual mouse MUC16 peptides
T2 construct: A cysteine was added at the N terminus for KLH conjugation of the immunogen
T2 peptide: TLDRKSVFVDGYSQNRDD

mouse MUC16 on ID8 and BR5-FVB1 cells (mouse), sequence (chain, as listed by the source limits assumed): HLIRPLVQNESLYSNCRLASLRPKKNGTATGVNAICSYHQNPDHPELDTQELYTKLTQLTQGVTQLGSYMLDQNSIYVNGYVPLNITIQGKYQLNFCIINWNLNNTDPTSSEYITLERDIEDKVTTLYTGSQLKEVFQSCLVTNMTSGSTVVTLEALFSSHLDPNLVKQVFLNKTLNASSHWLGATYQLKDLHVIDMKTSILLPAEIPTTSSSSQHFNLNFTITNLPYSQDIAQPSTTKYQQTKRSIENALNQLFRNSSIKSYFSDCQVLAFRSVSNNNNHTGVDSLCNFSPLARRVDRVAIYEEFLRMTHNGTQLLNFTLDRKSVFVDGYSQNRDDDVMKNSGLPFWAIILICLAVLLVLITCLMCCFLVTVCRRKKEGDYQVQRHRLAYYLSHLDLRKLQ

Molecule: G anti Mouse IgG2b-PE (antibody)
% of cells in the PE-positive gate [1]: 0.99%
% of cells in the PE-positive gate [2]: 4.53%

Molecule: OC125 (antibody)
% of events in the upper right quadrant (PE-positive, GFP-positive) [8]: 25.4%
% of events in the upper left quadrant (PE-positive, GFP-negative) [9]: 2.39%
% of events in the upper left quadrant (PE-positive, GFP-negative) [10]: 1.1%
% of events in the upper right quadrant (PE-positive, GFP-positive) [11]: 1.09%
% of events in the upper left quadrant (PE-positive, GFP-negative) [12]: 97%

B1: 4H11.2.5 (antibody, V domains shown)
VH: VKLQESGGGFVKPGGSLKVSCAASGFTFSSYAMSWVRLSPEMRLEWVATISSAGGYIFYSDSVQGRFTISRDNAKNTLHLQMGSLRSGDTAMYYCARQGFGNYGDYYAMDYWGQGTTVTVSS
VL: DIELTQSPSSLAVSAGEKVTMSCKSSQSLLNSRTRKNQLAWYQQKPGQSPELLIYWASTRQSGVPDRFTGSGSGTDFTLTISSVQAEDLAVYYCQQSYNLLTFGPGTKLEVKR
notes: Mouse monoclonal, IgG2b (parent supernatant IgG2b, IgM); also called 4H11 MAb
binding result [18]: binds

The remaining lines, values ahead:

% of events in the upper right quadrant (PE-positive, GFP-positive) [3]: 1.24%
% of events in the upper right quadrant (PE-positive, GFP-positive) [4]: 33.5%
% of events in the upper left quadrant (PE-positive, GFP-negative) [5]: 95.3%
% of events in the upper left quadrant (PE-positive, GFP-negative) [6]: 2.55%
% of events in the upper left quadrant (PE-positive, GFP-negative) [7]: 1.35%
Molecule: M11 (antibody)

% of events in the upper right quadrant (PE-positive, GFP-positive) [13]: 1.02%
% of events in the upper left quadrant (PE-positive, GFP-negative) [14]: 0.91%
% of events in the upper left quadrant (PE-positive, GFP-negative) [15]: 94.9%
% of events in the upper left quadrant (PE-positive, GFP-negative) [16]: 0.69%
% of events in the upper right quadrant (PE-positive, GFP-positive) [17]: 6.59%
Molecule: VK8 (antibody)

binding result [18]: binds
B2: 4A5.37 (antibody, IgG1, V domains shown)
VH: B1 VH with Q4E, V19I, S29R, S30N
VL: B1 VL with P46T, V111I
notes: Mouse monoclonal, IgG1

binding result [19]: binds
B3: 12B10-3G10 (antibody, V domains shown)
VH: EVKLEESGGGLVQPKGSLKLSCAASGFTFNTYAVHWVRQAPGKGMEWVARIRSKSGNYATYYADSVKDRFTISRNDSQSMLYLQMNNLKTEDTAIYYCVRAGNNGAFPYWGQGTTVTVSS
VL: DIELTQSPSSLSASLGGRVTITCKASQDIKKYIAWYQHKPGKTPRLLIHFTSTLQTGIPSRFSGRGSGRDYSFSISNLESEDIATYYCLQYDSLYTFGGGTKLEIKR
notes: Mouse mAb against mouse MUC16, IgG 2b; also called mouse 12B10 mAb; 12B10-3F7
